Article PMC7857403

Biological target: SARS-CoV-2 spike ectodomain trimer (SARS-CoV-2) (UniProt P0DTC2)
Experiment: cryo-EM structure

Question: With LCB3 (designed binder) as the substance, how does the stoichiometry N (minibinders per spike trimer) read?
Answer: The stoichiometry N (minibinders per spike trimer) was 3.

Question: Which stoichiometry N (minibinders per spike trimer) does the source give for LCB1 (designed binder) here?
Answer: Its stoichiometry N (minibinders per spike trimer) is 3.
